Target: T1, histone H4 (Xenopus laevis) (Xenopus laevis, UniProt P62799 1-103)
T1 construct: histone H4, Xenopus laevis, recombinant; In the cryo-EM structure H4 stood within the nucleosome m2; source: bought: Histone Source Protein Expression and Purification Facility, Colorado State University (purified recombinant)
Assay: cryo-EM structure; modified nucleosomes at 1 µM, ALC1 at 6 µM, ADP-BeF3 at 1 mM, incubated 60 minutes on ice before vitrification
Conditions: both partners purified

B1: ALC1 (Amplified in Liver Cancer 1), wild-type construct (16-879) (enzyme)
chain: FLLRLHTEGRAEAARVQEQDLRQWGLTGIHLRSYQLEGVNWLAQRFHCQNGCILGDEMGLGKTCQTIALFIYLAGRLNDEGPFLILCPLSVLSNWKEEMQRFAPGLSCVTYAGDKEERACLQQDLKQESRFHVLLTTYEICLKDASFLKSFPWSVLVVDEAHRLKNQSSLLHKTLSEFSVVFSLLLTGTPIQNSLQELYSLLSFVEPDLFSKEEVGDFIQRYQDIEKESESASELHKLLQPFLLRRVKAEVATELPKKTEVVIYHGMSALQKKYYKAILMKDLDAFENETAKKVKLQNILSQLRKCVDHPYLFDGVEPEPFEVGDHLTEASGKLHLLDKLLAFLYSGGHRVLLFSQMTQMLDILQDYMDYRGYSYERVDGSVRGEERHLAIKNFGQQPIFVFLLSTRAGGVGMNLTAADTVIFVDSDFNPQNDLQAAARAHRIGQNKSVKVIRLIGRDTVEEIVYRKAASKLQLTNMIIEGGHFTLGAQKPAADADLQLSEILKFGLDKLLASEGSTMDEIDLESILGETKDGQWVSDALPAAEGGSRDQEEGKNHMYLFEGKDYSKEPSKEDRKSFEQLVNLQKTLLEKASQEGRSLRNKGSVLIPGLVEGSTKRKRVLSPEELEDRQKKRQEAAAKRRRLIEEKKRQKEEAEHKKKMAWWESNNYQSFCLPSEESEPEDLENGEESSAELDYQDPDATSLKYVSGDVTHPQAGAEDALIVHCVDDSGHWGRGGLFTALEKRSAEPRKIYELAGKMKDLSLGGVLLFPVDDKESRNKGQDLLALIVAQHRDRSNVLSGIKMAALEEGLKKIFLAAKKKKASVHLPRIGHATKGFNWYGTERLIRKHLAARGIPTYIYYFPRSK
notes: human ALC1/CHD1L, residues 16-879; The cryo-EM methods call the protein ALC1^fl, while the only construct described is 16-879; also called CHD1L; ALC1/CHD1L; source: E. coli Rosetta 2 (DE3), purified (HisTrap, Q/SP ion exchange, Superdex 200)
  binding result: binds

Reference: PMC10837151, “Asymmetric nucleosome PARylation at DNA breaks mediates directional nucleosome sliding by ALC1” (Nature Communications, 2024)
